{
  "source": "patent US20220047716A1",
  "about": "(SUTRO BIOPHARMA, published 2022)",
  "data": [
    {"biological_target": "human folate receptor alpha (hFOLR1) (human, UniProt P15328 25-234)", "sequence (P15328 25-234 limits assumed)": "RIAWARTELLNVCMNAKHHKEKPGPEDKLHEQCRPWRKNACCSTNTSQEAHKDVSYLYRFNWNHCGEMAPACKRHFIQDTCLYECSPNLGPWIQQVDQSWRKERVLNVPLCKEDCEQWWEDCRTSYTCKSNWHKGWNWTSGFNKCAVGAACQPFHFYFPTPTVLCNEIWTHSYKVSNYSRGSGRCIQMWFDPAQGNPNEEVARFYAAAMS", "assay": "cell-based or functional assay", "units": {"Igrov 2° antibody cell killing EC50": "pM", "Igrov 2° antibody cell killing Span": "%", "KB 2° antibody cell killing EC50": "pM", "KB 2° antibody cell killing Span": "%"}, "values": [
      {"binder": "SRP1848-A01 (antibody, V domains shown) VH: EVQLVESGGGLVQPGGSLRLSCAASGFNITRYSIHWVRQAPGKGLEWVAGILPESGGTSYADSVKGRFTISADTSKNTAYLQMNSLRAEDTAVYYCARHIYPWDWFSNYVLDYWGQGTLVTVSS VL: not shown", "Igrov 2° antibody cell killing EC50": 15, "Igrov 2° antibody cell killing Span": 71, "KB 2° antibody cell killing EC50": 64, "KB 2° antibody cell killing Span": 94},
      {"binder": "SRP1848-F04 (antibody, V domains shown) VH: EVQLVESGGGLVQPGGSLRLSCAASGFNISNYSIHWVRQAPGKGLEWVGEIYPIDGITDYADSVKGRFTISADTSKNTAYLQMNSLRAEDTAVYYCARGSWFWRSGYGYYLDYWGQGTLVTVSS VL: not shown", "Igrov 2° antibody cell killing EC50": 15, "Igrov 2° antibody cell killing Span": 73, "KB 2° antibody cell killing EC50": 96, "KB 2° antibody cell killing Span": 93},
      {"binder": "SRP1848-A04 (antibody, V domains shown) VH: EVQLVESGGGLVQPGGSLRLSCAASGFNIDQSSIHWVRQAPGKGLEWVGVIYPVDGTTDYADSVKGRFTISADTSKNTAYLQMNSLRAEDTAVYYCARGAWSWRSGYGYYIDYWGQGTLVTVSS VL: not shown", "Igrov 2° antibody cell killing EC50": 15, "Igrov 2° antibody cell killing Span": 64, "KB 2° antibody cell killing EC50": 52, "KB 2° antibody cell killing Span": 92},
      {"binder": "SRP1848-A06 (antibody, V domains shown) VH: EVQLVESGGGLVQPGGSLRLSCAASGFNIGNSYIHWVRQAPGKGLEWVGGITPIDGNTDYADSVKGRFTISADTSKNTAYLQMNSLRAEDTAVYYCARGAWSWRSGYGYYIDYWGQGTLVTVSS VL: not shown", "Igrov 2° antibody cell killing Span": 72, "KB 2° antibody cell killing EC50": 46, "KB 2° antibody cell killing Span": 93},
      {"binder": "SRP1848-A07 (antibody, V domains shown) VH: EVQLVESGGGLVQPGGSLRLSCAASGFNIGYHSIHWVRQAPGKGLEWVGEIFPVDGTTDYADSVKGRFTISADTSKNTAYLHMNSLRAEDTAVYYCARGFWAWRSGYGYYLDYWGQGTLVTVSS VL: not shown", "Igrov 2° antibody cell killing EC50": 29, "Igrov 2° antibody cell killing Span": 68, "KB 2° antibody cell killing EC50": 62, "KB 2° antibody cell killing Span": 95},
      {"binder": "SRP1848-A08 (antibody, V domains shown) VH: EVQLVESGGGLVQPGGSLRLSCAASGSNIRKHSIHWVRQAPGKGLEWVGSIYPNDGTTDYADSVKGRFTISADTSKNTAYLQMNSLRAEDTAVYYCARGSWFWRAGYGYYLDYWGQGTLVTVSS VL: not shown", "Igrov 2° antibody cell killing EC50": 13, "Igrov 2° antibody cell killing Span": 65, "KB 2° antibody cell killing EC50": 39, "KB 2° antibody cell killing Span": 93},
      {"binder": "SRP1848-A09 (antibody, V domains shown) VH: EVQLVESGGGLVQPGGSLRLSCAASGFNIRKQSIHWVRQAPGKGLEWVGSIFPNDGTTDYADSVKGRFTISADTSKNTAYLQVNSLRAEDTAVYYCARGSWFWRSGYGYFLEYWGQGTLVTVSS VL: not shown", "Igrov 2° antibody cell killing EC50": 26, "Igrov 2° antibody cell killing Span": 71, "KB 2° antibody cell killing Span": 93},
      {"binder": "SRP1848-A10 (antibody, V domains shown) VH: EVQLVESGGGLVQPGGSLRLSCAASGFNIRKYSIHWARQAPGKGLEWVGDIFPIDDITDYADSVKGRFTISADTSKNTAYLQMNSLRAEDTAVYYCARGSWSWPSGHSYYLDYWGQGTLVTVSS VL: not shown", "Igrov 2° antibody cell killing EC50": 27, "Igrov 2° antibody cell killing Span": 75, "KB 2° antibody cell killing EC50": 33, "KB 2° antibody cell killing Span": 96},
      {"binder": "SRP1848-B01 (antibody, V domains shown) VH: EVQLVESGGGLVQPGGSLRLSCAASGFNIRNYSIHWVRQAPGKGLEWVGEIYPVDGITDYADSVKGRFTISADTSKNTAYLQMNSLRAEDTAVYYCARGFWSWPSGYSYFLDYWGQGTLVTVSS VL: not shown", "Igrov 2° antibody cell killing EC50": 31, "Igrov 2° antibody cell killing Span": 82, "KB 2° antibody cell killing EC50": 64, "KB 2° antibody cell killing Span": 95}
    ]}
  ]
}
